Our source for the stoichiometry N values is article doi:10.1101/2020.03.30.016147.

Assay [1] deals with C4BP-ANG1 (human) (UniProt P04003). The assay can be described thus: non-reducing SDS-PAGE.
For assay [2] the target is unchanged. Nature of the assay: negative-stain electron microscopy.
Assay [3] deals with ANG1-C4BP (human) (UniProt Q15389). Nature of the assay: non-reducing SDS-PAGE.

For “C4BP-ANG1 (from UniProt P04003 541-597; Q15389-1 281-498) (ligand)”, the stoichiometry N in assay [1] and in assay [2] was 7 each time.

In assay [3], “ANG1-C4BP (from UniProt Q15389-1 281-498; P04003 541-597) (ligand)” yielded a stoichiometry N of 7.

The stoichiometry N is a count of units in the complex or per binding partner.
